# Test results reported in the nanobody polyreactivity screen of Harvey et al. (2022).
# Assay: yeast display, Sf9 membrane polyspecificity reagent, FACS + sequencing; frameworks hold sequencing errors
# Procedure, shortened: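 Using colony PCR, genes from sorted yeast display clones were amplified, then sequenced on MiSeq at 2 × 250 and filtered by CDR length. The clones had been stained with 10% biotinylated, detergent-solubilized Sf9 membrane reagent for 1 hour at 4 °C and sorted by FACS into low and high (top ~1%) gates on anti-HA and streptavidin fluorescence. Polyreactivity labels come from the gate of origin.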
row,Sequence,polyreactivity (PSR sort gate)
1,QVQLVESGGGLVQAGGSLRLSCAASGRIFNLYAMGWYRQAPGKERELVAAISSGGSTYYADSVKGRFTISRDNAKNTVYLQMNSLKPEDTAVYYCAAKNGDRYARGYWGQGTQVTVSS,high polyreactivity
2,QVQLVESGGGLVQAGGSLRLSCAASGRIFNLYAMGWYRQAPGKERELVAAISWRGGSTYYADSVKGRFTISRDNAKNTVYLQMNSLKPEDTAVYYCAATFFTYVYRYYYWGQGTQVTVSS,high polyreactivity
3,QVQLVESGGGLVQAGGSLRLSCAASGRIFNNYAMGWYRQAPGKERELVASITSGGSTNYADSVKGRFTISRDNAKNTVYLHMNSLKPEDTAVYYCNAPRGNRYHTGGYWGQGTQVTVSS,low polyreactivity
4,QVQLVESGGGLVQAGGSLRLSCAASGRIFNQYGMGWYRQAPGKERELVAAIRSGDSTNYADSVKGRFTISRDNAKNTVYLQMNSLKPVDTAVYYFNAYLSPKQPLSPPDPTFEGGYWGQGTQVTVSS,low polyreactivity
5,QVQLVESGGGLVQAGGSLRLSCAASGRIFNRNAMGWYRQAPGKERELVAAISSSGGSTYYADSVKGRFTISRDTAKNTVYLQMNSLKPEDTAVYYCAAVTQSYGYYYWGQGTQVTVSS,high polyreactivity
6,QVQLVESGGGLVQAGGSLRLSCAASGRIFNRNAMGWYRQAPGKERELVAAITRGGRTNYADSVKGRFTISRDNAQNTVYLHMNSLKPEDTAVYYCAAAYYGSHCRYDYWGQGTQVTVSS,high polyreactivity
7,QVQLVESGGGLVQAGGSLRLSCAASGRIFNRNAMGWYRQAPGKERELVATISFNDGSTYYADSVKGRFRISRDIAKNTVYLQMNSLKPEDTAVYYCAKEGYVFEYDYWGKGTQVTVSS,low polyreactivity
8,QVQLVESGGGLVQAGGSLRLSCAASGRIFNRYAMGWYRQAPGKERELVAAINYRGSSTYYADSVKGRFTISRDNAKNTGYLQMNSLKPEVTAVYYCKTYGQTDTYWRYYYWGQGTQVTVSS,high polyreactivity
9,QVQLVESGGGLVQAGGSLRLSCAASGRIFNRYAMGWYRQAPGKERELVAAISASGDNTYYADSVKGRFTISRDNAKKNVYLQMNSLKPEDTAVYYCAARYYTYLHFRMYYWGQGTQVTVSS,high polyreactivity
10,QVQLVESGGGLVQAGGSLRLSCAASGRIFNSYAMGCYRQAPGKERELVAAINWTDVSTYYADSVKGRFTISRDNAKNTVYLQMNSLKPEDTAVYYCAAVRWGSYTLSDDYWGQGTQVTVSS,low polyreactivity
11,QVQLVESGGGLVQAGGSLRLSCAASGRIFNWYGMGWYRQAPGKERELVATISSSGDSTYYADSVKGRFTISRDNAKNTVYLQMNSLKPEDTAVYYCAKRARYKFGYWGQGTQVTVSS,high polyreactivity
12,QVQLVESGGGLVQAGGSLRLSCAASGRIFNYNALGWYRQAPGKESELVATITYIGTGTYYADSVKGRFTISRDNAKTTVYLQMNSLKPEDTAVYYCAASYRSRVWWRFDYWGQGTQVTVSS,high polyreactivity
13,QVQLVESGGGLVQAGGSLRLSCAASGRIFNYYAMGSYRQAPGKERDLVAAITSRGGSTYYADSVKGRFTISRDNAKNTVYLQMNSLNPEDTAVYYCNTRVWYPGTIHPVDYWGQGTQVTVSS,low polyreactivity
14,QVQLVESGGGLVQAGGSLRLSCAASGRIFNYYAMGWYRLAPGKERELVAAINSGGSTYADSVKGRFTISRDNAKNTVYLEMNSLKPEDTAVYYCANDGQLQSGRERPSGYDHWGQGTQVTVSS,low polyreactivity
15,QVQLVESGGGLVQAGGSLRLSCAASGRIFNYYAMGWYRQAPGKEMELVAVITYSAGRTYYADSVKGRFTISRDNAKNTVYLQMNSLKPEDTAVYYCNADGWVSVSKHYYYWGQGTQVTVSS,low polyreactivity
16,QVQLVESGGGLVQAGGSLRLSCAASGRIFNYYAMGWYRQAPGKERELVAAINSGGSTYADSVKGRFTISRDNAKNTVYLQMNSLKPEDTAVYYCAKDGQLQSGRERPSGYDHWGQGTQVTVSS,low polyreactivity

row,Sequence,polyreactivity (PSR sort gate)
1,QVQLVESGGGLVQAGGSLRLSCAASGRIFNYYAMGWYRQAPGKERELVAAINWSGVRTYYADSVKGRFTISRDNAKNTVYLQMNSLKPEDTEVYYCARDAGAAYGYYSWGQGTQVTVSS,high polyreactivity
2,QVQLVESGGGLVQAGGSLRLSCAASGRIFNYYAMGWYRQAPGKERELVASITSRGGTTYYADSVKGRFTISRDKAKKTVYLQMNSLIPEDTAVYYCAAFTRPVSRRSRMNYWGQGTQVTVSS,high polyreactivity
3,QVQLVESGGGLVQAGGSLRLSCAASGRIFPAYVMGWYRQAHGKERELVATIDNGGGTYYADSVKGRFTISRDNAKNTVYLQMNSLKPEDTAVYYCARDRHVRWGLKMDYSGQGTQVTVSS,low polyreactivity
4,QVQLVESGGGLVQAGGSLRLSCAASGRIFPDNAMGWYRQAHGKERELVAVITYSGGSTYYADSVKGRFTISRDNAKNTVYLQMNSLKPEDTAVYYCAARDYYIWFAEVDYWGQGTQVTVSS,low polyreactivity
5,QVQLVESGGGLVQAGGSLRLSCAASGRIFPDYAMGWYRQAPGKERELVAAISSSGGRTYYADSVKGRFTISRDNAKNTVYLQMNSLKPEDTAVYYCAARGSYTSIFDYWGQGTQVTVSS,high polyreactivity
6,QVQLVESGGGLVQAGGSLRLSCAASGRIFPFYAMGWYIQAPGKERELVAAISRSGRTNYADSVKGRFTISRDNAKNTVFLQMNSLKPEDTAVYYCNADYYLFDFDSWGQGTQVTVSS,low polyreactivity
7,QVQLVESGGGLVQAGGSLRLSCAASGRIFPFYAMVWYRQAPGKERELVAAITTSGGSTYYADSVKGRFTISRDNAKNTVYLQMNRLKPEDTAVYYCNKRLGLELAPWEMNYWGQGTQVTVSS,low polyreactivity
8,QVQLVESGGGLVQAGGSLRLSCAASGRIFPGYAMGWYRQAPGKEREFVAAITASGGTTYYADSVKGRFTISRDNAKNTVYLQMNSLKPEDTAVYYCAVYDWRYYLGKLMEYWGQGTQVTVSS,high polyreactivity
9,QVQLVESGGGLVQAGGSLRLSCAASGRIFPGYAMGWYRQAPGKERELVAAISKGGGSKYYADSVKGRFTISRDNAKNTVYLQMNSLKTEDTAVYYCAAQSYPRSYGLDYWGQGTQVTVSS,high polyreactivity
10,QVQLVESGGGLVQAGGSLRLSCAASGRIFPGYAMGWYRQAPGKERELVAAISTNGGRTYYADSVKGRFTISRDNAKNTVYLQMNSLKPEDTADYYCAAESAYDAYDYWGQGTQVTVSS,high polyreactivity
11,QVQLVESGGGLVQAGGSLRLSCAASGRIFPGYDMGWYRQAPGKERELVAAISASGGSTYYADSVKGRFTISRDNAKNTVYLQMNSLKPEDTAVYYCNAVYRLIRFDYWGQGTQVTVSS,high polyreactivity
12,QVQLVESGGGLVQAGGSLRLSCAASGRIFPGYVMGWYRQAHGKERELVAAITRGGSTYYADSVKGRFTISRDNAKNTVYLQMNSLKPEDTAVYYCAAKHSHIHYNYWGQGTQVTVSS,low polyreactivity
13,QVQLVESGGGLVQAGGSLRLSCAASGRIFPHYAMGWFRQAPGKERELVAAISSGGRTNYADSVKGRFTISRDNAKNTVYLQMNSLKREDSAVYYCAAEAPFYVIGRRYRGYDYWGQGTQVTVSS,high polyreactivity
14,QVQLVESGGGLVQAGGSLRLSCAASGRIFPHYTMGWYRQAPGKERELVATISGRGGSTYYADSVKGRFTISRDIAKNTVYLQMNSLKPEDTAVYYCAREGCRRYAGLYYWGQGTQVTVSS,high polyreactivity
15,QVQLVESGGGLVQAGGSLRLSCAASGRIFPKYAMGGDRQAPGTERPLVAAISSSGGSKYYADSVKGRFTISRDNAKNTVYFQMNSLKPEDTAVYYCNVDKATRDRYPGFDYWGQGTQVTVSS,high polyreactivity
16,QVQLVESGGGLVQAGGSLRLSCAASGRIFPKYTMGWYRQAPGKERELVASINSSGRTTYADSVKGRFTITRDNAKNTVYLQMNSLKPEDTAVYYCAKRVFSARGYGYWGQGTQVTVSS,low polyreactivity
